The test concerns the target full-length AgrC-I Q305A in lipid nanodiscs (S. aureus). The test can be described thus: fluorescence polarisation.

Broadly, the pKd is the Kd on a negative log10 scale, so that one unit is a factor of ten.

pKd: −log10 of the molar value.

As for AIP-I (peptide), the pKd is 7.25.
For AIP-II (peptide) the value was 6.82.

For the origin of these results see paper PMC6506218.
